{
  "source": "IntAct's records for PubMed 26823173",
  "parents": {"B1": {"name": "Coronin-1A (Mus musculus), O89053 (parent)", "chain": "MSRQVVRSSKFRHVFGQPAKADQCYEDVRVSQTTWDSGFCAVNPKFMALICEASGGGAFLVLPLGKTGRVDKNVPLVCGHTAPVLDIAWCPHNDNVIASGSEDCTVMVWEIPDGGLVLPLREPVITLEGHTKRVGIVAWHPTAQNVLLSAGCDNVILVWDVGTGAAVLTLGPDVHPDTIYSVDWSRDGALICTSCRDKRVRVIEPRKGTVVAEKDRPHEGTRPVHAVFVSEGKILTTGFSRMSERQVALWDTKHLEEPLSLQELDTSSGVLLPFFDPDTNIVYLCGKGDSSIRYFEITSEAPFLHYLSMFSSKESQRGMGYMPKRGLEVNKCEIARFYKLHERKCEPIAMTVPRKSDLFQEDLYPPTAGPDPALTAEEWLGGRDAGPLLISLKDGYVPPKSRELRVNRGLDSARRRATPEPSGTPSSDTVSRLEEDVRNLNAIVQKLQERLDRLEETVQAK"}},
  "data": [
    {"variants_of": "B1", "settings": "with gnas2_human GNAS", "values": [
      {"variant": "T418A", "effect of a mutation on the interaction": "decreasing interaction"},
      {"variant": "T418A;T424A", "effect of a mutation on the interaction": "disrupting interaction"},
      {"variant": "T424A", "effect of a mutation on the interaction": "decreasing interaction"}
    ]},
    {"variants_of": "B1", "settings": "with gnas2_human GNAS", "remark": "another data set of the same source", "values": [
      {"variant": "T418E;T424E", "effect of a mutation on the interaction": "disrupting interaction"}
    ]}
  ]
}
